Data reported in PMC11088704, “Structural basis for the regulation of plant transcription factor WRKY33 by the VQ protein SIB1” (Communications Biology, 2024).
Each block holds one binder with its values, some of them ahead of it.

Legend:
[1] = molecular target: T1, WRKY33_C R366C mutant (Arabidopsis thaliana, UniProt Q8S8P5 331-422, R366C); assay: NMR titration; 2D 1H-15N HSQC of 15N-labeled SIB1 free and in complex with unlabeled WRKY33_C or its mutants; 30 mM MES pH 6.0, 50 mM NaCl, 20 uM ZnSO4, 25 °C; settings: both partners purified
T1 construct: WRKY33, Arabidopsis, C-terminal DBD; also called R336 (as printed once); source: E. coli, expressed and purified similarly to the wild-type protein

[2] = molecular target: T2, WRKY33_C K376C mutant (Arabidopsis thaliana, UniProt Q8S8P5 331-422, K376C); assay: as above; settings: both partners purified
T2 construct: WRKY33, Arabidopsis, C-terminal DBD; The mutant without the maleimide-EDTA tag; source: E. coli, expressed and purified similarly to the wild-type protein

[3] = molecular target: T3, spin-labeled WRKY33_C R366C (Arabidopsis thaliana, UniProt Q8S8P5 331-422, R366C, Cys366 labelled with N-[2-maleimidoethyl]ethylenediamine-N,N,N',N'-tetraacetic acid monoamide, chelating Mn^2+ (paramagnetic) or Ca^2+); assay: as above; settings: both partners purified
T3 construct: WRKY33, Arabidopsis, C-terminal DBD; also called R366C spin-labeled; Ca^2+-chelated WRKY33_C mutant; source: E. coli, purified as the wild type; labelled, then purified on a cation exchange column

[4] = molecular target: T4, spin-labeled WRKY33_C K376C (Arabidopsis thaliana, UniProt Q8S8P5 331-422, K376C, Cys376 labelled with N-[2-maleimidoethyl]ethylenediamine-N,N,N',N'-tetraacetic acid monoamide, chelating Mn^2+ (paramagnetic) or Ca^2+); assay: as above; settings: both partners purified
T4 construct: WRKY33, Arabidopsis, C-terminal DBD; also called K376C spin-labeled; Ca^2+-chelated WRKY33_C mutant; source: E. coli, purified as the wild type; labelled, then purified on a cation exchange column

[5] = molecular target: T5, spin-labeled WRKY33_C D357C (Arabidopsis thaliana, UniProt Q8S8P5 331-422, D357C, Cys357 labelled with N-[2-maleimidoethyl]ethylenediamine-N,N,N',N'-tetraacetic acid monoamide, chelating Mn^2+ (paramagnetic) or Ca^2+); assay: as above; settings: both partners purified
T5 construct: WRKY33, Arabidopsis, C-terminal DBD; also called D357C spin-labeled; Ca^2+-chelated WRKY33_C mutant; source: E. coli, purified as the wild type; labelled, then purified on a cation exchange column

[6] = molecular target: T6, WRKY33_C D357C mutant (Arabidopsis thaliana, UniProt Q8S8P5 331-422, D357C); assay: as above; settings: both partners purified
T6 construct: WRKY33, Arabidopsis, C-terminal DBD; The mutant without the maleimide-EDTA tag; source: E. coli, expressed and purified similarly to the wild-type protein

[7] = molecular target: T7, WRKY33 C-terminal DNA-binding domain (WRKY33_C) (Arabidopsis thaliana, UniProt Q8S8P5 331-422); assay: cross-linking; EGS crosslinker, 30-fold molar excess; WRKY33_C and SIB1 each 90 uM; 20 mM HEPES pH 7.0, 50 mM NaCl; room temperature; Tricine-SDS-PAGE; settings: both partners purified
T7 construct: it holds I350 and the truncation V352-A422 is derived from it; Zinc-finger domain; 20 uM ZnSO4 in the buffers; Construct limits may be read from PDB 8K31; also called WRKY33 cDBD; WK33; source: E. coli BL21(DE3), purified (Ni-NTA, gel filtration Superdex-75)

[8] = molecular target: T7, WRKY33 C-terminal DNA-binding domain …; assay: SEC; Superdex-75; Trx-SIB1 incubated with WRKY33_C before loading; protein standards for calibration; settings: both partners purified
[9] = molecular target: WRKY33_C (Arabidopsis thaliana, UniProt Q8S8P5 345-422); assay: EMSA; no SIB1; estimated from band intensity (an earlier response in the peer review file prints 150 uM, called sub-micromolar); EMSA: NMR buffer (composition not given in material) with 100 mM NaCl, 1.0 ng dsDNA in 20 ul, room temperature 20 min, SIB1:WRKY33_C 2:1; gel in 0.5x TBE, GelRed stain; settings: protein: recombinant; tags: C-terminal 6xHis; blunt
[10] = molecular target: T8, WRKY33_C I350A mutant (Arabidopsis thaliana, UniProt Q8S8P5 331-422, I350A); assay: NMR titration; 2D 1H-15N HSQC of 15N-labeled WRKY33_C (or its mutants), 0.1 mM, with SIB1 or SIB1 peptides added at 2:1 (5:1 also for SIB1^40–60 and SIB1^55–69); 30 mM MES pH 6.0, 50 mM NaCl, 20 uM ZnSO4, 10% D2O, 25 °C; settings: both partners purified
T8 construct: WRKY33, Arabidopsis, C-terminal DBD; source: E. coli BL21(DE3), purified (Ni-NTA, gel filtration Superdex-75)

[11] = molecular target: T9, WRKY33_C V351A mutant (Arabidopsis thaliana, UniProt Q8S8P5 331-422, V351A); assay: as above; settings: both partners purified
T9 construct: WRKY33, Arabidopsis, C-terminal DBD; source: E. coli BL21(DE3), purified (Ni-NTA, gel filtration Superdex-75)

[12] = molecular target: T10, WRKY33_C-I360D mutant protein (Arabidopsis thaliana, UniProt Q8S8P5 331-422, I360D); assay: as above; settings: both partners purified
T10 construct: WRKY33, Arabidopsis, C-terminal DBD; source: E. coli BL21(DE3), purified (Ni-NTA, gel filtration Superdex-75)

[13] = molecular target: T11, WRKY33_C-I358D mutant protein (Arabidopsis thaliana, UniProt Q8S8P5 331-422, I358D); assay: as above; settings: both partners purified
T11 construct: WRKY33, Arabidopsis, C-terminal DBD; source: E. coli BL21(DE3), purified (Ni-NTA, gel filtration Superdex-75)
T11 sequence (Q8S8P5 331-422 I358D): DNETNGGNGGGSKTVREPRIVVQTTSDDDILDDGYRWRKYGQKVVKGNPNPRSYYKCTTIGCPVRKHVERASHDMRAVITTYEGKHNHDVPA

T7 sequence (Q8S8P5 331-422): as the sequence (Q8S8P5 331-422 I358D) above, with D28I counted along it
T3 sequence (Q8S8P5 331-422 R366C): as the sequence (Q8S8P5 331-422 I358D) above, with D28I, R36C counted along it
T1 sequence (Q8S8P5 331-422 R366C): as the sequence (Q8S8P5 331-422 I358D) above, with D28I, R36C counted along it
T8 sequence (Q8S8P5 331-422 I350A): as the sequence (Q8S8P5 331-422 I358D) above, with I20A, D28I counted along it
T2 sequence (Q8S8P5 331-422 K376C): as the sequence (Q8S8P5 331-422 I358D) above, with D28I, K46C counted along it
T4 sequence (Q8S8P5 331-422 K376C): as the sequence (Q8S8P5 331-422 I358D) above, with D28I, K46C counted along it
T5 sequence (Q8S8P5 331-422 D357C): as the sequence (Q8S8P5 331-422 I358D) above, with D27C, D28I counted along it
T6 sequence (Q8S8P5 331-422 D357C): as the sequence (Q8S8P5 331-422 I358D) above, with D27C, D28I counted along it
T9 sequence (Q8S8P5 331-422 V351A): as the sequence (Q8S8P5 331-422 I358D) above, with V21A, D28I counted along it
Chain of WRKY33_C (Q8S8P5 345-422): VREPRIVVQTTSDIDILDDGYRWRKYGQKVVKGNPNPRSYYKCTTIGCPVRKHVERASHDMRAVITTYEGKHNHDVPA
T10 sequence (Q8S8P5 331-422 I360D): as the sequence (Q8S8P5 331-422 I358D) above, with D28I, I30D counted along it

B1: SIB1^11-100 (T11-L100 segment of Arabidopsis sigma factor-binding protein SIB1) (domain or fragment, Arabidopsis thaliana, UniProt Q9LDH1 11-100, looked up)
chain: TTSLDKKKPSPVSRKSPKQKKKTTSTNKPIKVRYISNPMRVQTCASKFRELVQELTGQDAVDLQPEPIYSPSSDDHNLSPPAENLAPRVL
notes: SIB1 (VQ23), Arabidopsis, residues T11-L100; the N-terminal chloroplast targeting signal and the C-terminal 51 residues are deleted; Used unlabelled, 15N- or 13C/15N-labelled; also called VQ23; source: E. coli BL21(DE3), purified (Ni-NTA, gel filtration Superdex-75)
- binding result [1]: binds
- binding result [2]: binds
- binding result [3]: binds
- binding result [4]: binds
- binding result [5]: binds
- binding result [6]: binds
- stoichiometry N [7]: 1

B2: Trx-SIB1 fusion protein (thioredoxin-fused SIB1) (domain or fragment, Arabidopsis thaliana, UniProt Q9LDH1 11-100, looked up)
chain: B1 chain
notes: SIB1 (VQ23), Arabidopsis; limits are not restated for the Trx fusion; The methods give 24 kDa for 'Trx'
- stoichiometry N [8]: 1

B3: W-box DNA (dsDNA)
DNA 1: AAAGTTGACCAA
DNA 2: TTGGTCAACTTT
- Kd [9]: ~150 nM

Next, values leading:

- binding result [10]: binds
- binding result [11]: binds
B4: SIB1^mini (SIB1^46–69 peptide, minimal SIB1 construct) (peptide, UniProt Q9LDH1 46-69, looked up)
peptide: SNPMRVQTCASKFRELVQELTGQD
notes: SIB1 (VQ23), Arabidopsis, residues 46-69: the VQ motif and its preceding segment; source: synthetic peptide

- binding result [12]: binds
- binding result [13]: binds
B5: SIB1^mini-V51R mutant peptide (peptide, UniProt Q9LDH1 46-69, looked up)
peptide: SNPMRRQTCASKFRELVQELTGQD
notes: SIB1 (VQ23), Arabidopsis, residues 46-69 with V51R
